Experimental data taken from the supplement of paper PMC10065799, “High-throughput profiling of sequence recognition by tyrosine kinases and SH2 domains using bacterial peptide display” (eLife, 2023).

How the values were obtained:
AncSZ = test: phosphorylation enrichment, bacterial display (enrichment ratio); higher = better substrate or ligand; peptides without Tyr show the background
EPHB1 = EPHB1 (UniProt P54762); test: as above
EPHB2 = EPHB2 (UniProt P29323); test: as above
FGFR1 = FGFR1 (UniProt P11362); test: as above
FGFR3 = FGFR3 (UniProt P22607); test: as above
Fer (mouse) = test: as above
Fes = Fes (UniProt P07332); test: as above
Fyn = Fyn (UniProt P06241); test: as above
Hck = Hck (UniProt P08631); test: as above
Jak2 = Jak2 (UniProt O60674); test: as above
MERTK = MERTK (UniProt Q12866); test: as above
c-Abl (mouse) = test: as above
c-Src = test: as above
Grb2 SH2 = Grb2 SH2 (UniProt P62993); test: SH2 binding enrichment of the phosphorylated peptide, bacterial display (enrichment ratio); higher = better substrate or ligand; peptides without Tyr show the background
SHP2-C SH2 = test: as above
c-Src SH2 = test: as above
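Wherever SH2 binding enrichment of the phosphorylated peptide, bacterial display is given: peptide library displayed on the E. coli surface as eCPX fusions, selected cells deep-sequenced, score is each peptide's frequency after selection divided by its frequency in the input.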
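Wherever phosphorylation enrichment, bacterial display is given: 11-residue human phosphosite peptides and single-mutation variants displayed on the E. coli surface, counted by deep sequencing, each peptide's frequency after selection divided by its frequency in the unselected input library; frequency after pTyr selection over input frequency; kinase dosed for 20-30% of maximal phosphorylation in three min.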

Jak2, sequence (O60674 whole entry, looked up): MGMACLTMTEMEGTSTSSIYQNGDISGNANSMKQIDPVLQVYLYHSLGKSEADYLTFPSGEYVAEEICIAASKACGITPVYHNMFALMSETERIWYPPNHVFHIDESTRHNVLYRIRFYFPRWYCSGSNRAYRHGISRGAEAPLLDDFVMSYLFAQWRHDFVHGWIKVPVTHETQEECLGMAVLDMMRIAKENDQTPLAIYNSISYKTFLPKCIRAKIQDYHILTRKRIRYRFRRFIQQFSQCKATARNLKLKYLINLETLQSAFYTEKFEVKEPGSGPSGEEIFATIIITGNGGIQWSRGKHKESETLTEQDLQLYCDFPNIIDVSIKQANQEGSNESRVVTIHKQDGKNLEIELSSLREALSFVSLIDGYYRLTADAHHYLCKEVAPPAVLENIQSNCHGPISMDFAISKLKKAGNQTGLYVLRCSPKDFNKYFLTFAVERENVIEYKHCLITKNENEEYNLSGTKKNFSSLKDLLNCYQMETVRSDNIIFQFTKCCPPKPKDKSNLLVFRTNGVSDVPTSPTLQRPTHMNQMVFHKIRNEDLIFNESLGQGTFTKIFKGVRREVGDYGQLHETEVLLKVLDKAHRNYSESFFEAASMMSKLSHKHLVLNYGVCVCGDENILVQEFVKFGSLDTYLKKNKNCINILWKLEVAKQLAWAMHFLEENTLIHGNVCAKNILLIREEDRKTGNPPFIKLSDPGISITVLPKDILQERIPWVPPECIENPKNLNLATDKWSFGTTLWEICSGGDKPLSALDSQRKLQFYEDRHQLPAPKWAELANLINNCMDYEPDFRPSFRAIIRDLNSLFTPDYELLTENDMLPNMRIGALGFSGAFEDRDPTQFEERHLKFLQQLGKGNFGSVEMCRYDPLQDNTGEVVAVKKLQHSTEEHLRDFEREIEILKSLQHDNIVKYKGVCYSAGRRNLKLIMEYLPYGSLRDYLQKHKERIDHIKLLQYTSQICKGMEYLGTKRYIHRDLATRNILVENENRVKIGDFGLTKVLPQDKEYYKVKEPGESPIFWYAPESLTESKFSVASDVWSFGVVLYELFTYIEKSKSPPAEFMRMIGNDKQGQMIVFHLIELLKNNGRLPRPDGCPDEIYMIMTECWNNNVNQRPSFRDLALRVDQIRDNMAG
FGFR3, sequence (P22607 whole entry, looked up): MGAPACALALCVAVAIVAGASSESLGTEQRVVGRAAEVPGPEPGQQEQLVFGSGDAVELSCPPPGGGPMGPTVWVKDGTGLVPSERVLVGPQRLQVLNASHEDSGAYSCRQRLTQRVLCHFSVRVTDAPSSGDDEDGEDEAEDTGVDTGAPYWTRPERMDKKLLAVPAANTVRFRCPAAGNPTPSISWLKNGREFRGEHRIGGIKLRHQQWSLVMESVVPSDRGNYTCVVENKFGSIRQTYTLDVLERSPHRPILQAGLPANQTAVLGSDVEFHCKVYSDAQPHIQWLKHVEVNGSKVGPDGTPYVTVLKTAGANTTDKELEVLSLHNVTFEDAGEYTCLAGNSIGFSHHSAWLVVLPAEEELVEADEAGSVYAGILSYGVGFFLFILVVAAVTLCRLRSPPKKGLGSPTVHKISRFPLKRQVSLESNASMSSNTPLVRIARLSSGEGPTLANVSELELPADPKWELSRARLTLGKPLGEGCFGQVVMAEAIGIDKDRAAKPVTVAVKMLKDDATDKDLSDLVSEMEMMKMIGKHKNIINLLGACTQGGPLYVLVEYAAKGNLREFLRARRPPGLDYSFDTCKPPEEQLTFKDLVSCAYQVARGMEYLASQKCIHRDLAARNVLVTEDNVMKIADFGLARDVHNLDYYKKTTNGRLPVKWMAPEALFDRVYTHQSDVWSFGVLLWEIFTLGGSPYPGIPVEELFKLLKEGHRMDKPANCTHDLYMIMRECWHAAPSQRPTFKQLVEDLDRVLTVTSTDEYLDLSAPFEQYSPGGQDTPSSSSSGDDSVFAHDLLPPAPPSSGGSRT
MERTK, sequence (Q12866 whole entry, looked up): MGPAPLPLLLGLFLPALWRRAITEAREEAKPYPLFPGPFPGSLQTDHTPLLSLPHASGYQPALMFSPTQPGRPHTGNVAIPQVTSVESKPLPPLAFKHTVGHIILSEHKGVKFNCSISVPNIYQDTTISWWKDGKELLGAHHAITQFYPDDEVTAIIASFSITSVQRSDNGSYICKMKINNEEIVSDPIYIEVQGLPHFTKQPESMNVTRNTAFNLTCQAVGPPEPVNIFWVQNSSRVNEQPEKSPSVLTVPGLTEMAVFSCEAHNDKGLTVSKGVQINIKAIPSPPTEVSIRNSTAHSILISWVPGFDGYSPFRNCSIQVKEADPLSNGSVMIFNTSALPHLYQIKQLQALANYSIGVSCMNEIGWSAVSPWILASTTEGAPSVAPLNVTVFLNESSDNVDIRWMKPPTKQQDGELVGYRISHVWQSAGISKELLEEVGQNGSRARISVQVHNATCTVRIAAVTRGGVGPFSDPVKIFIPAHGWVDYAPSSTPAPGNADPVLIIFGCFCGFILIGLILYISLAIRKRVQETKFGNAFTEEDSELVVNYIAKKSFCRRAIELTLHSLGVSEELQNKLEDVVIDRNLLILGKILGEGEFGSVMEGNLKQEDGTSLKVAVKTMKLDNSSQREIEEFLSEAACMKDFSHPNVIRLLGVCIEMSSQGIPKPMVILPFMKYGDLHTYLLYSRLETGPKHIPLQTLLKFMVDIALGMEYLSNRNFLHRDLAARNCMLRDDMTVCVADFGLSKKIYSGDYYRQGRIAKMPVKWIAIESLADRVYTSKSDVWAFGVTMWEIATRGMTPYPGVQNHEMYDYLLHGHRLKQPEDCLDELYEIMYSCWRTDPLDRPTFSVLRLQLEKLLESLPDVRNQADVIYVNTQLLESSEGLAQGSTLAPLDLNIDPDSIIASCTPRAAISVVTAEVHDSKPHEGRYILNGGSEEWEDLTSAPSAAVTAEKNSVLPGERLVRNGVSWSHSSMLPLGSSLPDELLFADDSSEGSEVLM
Hck, sequence (P08631 whole entry, looked up): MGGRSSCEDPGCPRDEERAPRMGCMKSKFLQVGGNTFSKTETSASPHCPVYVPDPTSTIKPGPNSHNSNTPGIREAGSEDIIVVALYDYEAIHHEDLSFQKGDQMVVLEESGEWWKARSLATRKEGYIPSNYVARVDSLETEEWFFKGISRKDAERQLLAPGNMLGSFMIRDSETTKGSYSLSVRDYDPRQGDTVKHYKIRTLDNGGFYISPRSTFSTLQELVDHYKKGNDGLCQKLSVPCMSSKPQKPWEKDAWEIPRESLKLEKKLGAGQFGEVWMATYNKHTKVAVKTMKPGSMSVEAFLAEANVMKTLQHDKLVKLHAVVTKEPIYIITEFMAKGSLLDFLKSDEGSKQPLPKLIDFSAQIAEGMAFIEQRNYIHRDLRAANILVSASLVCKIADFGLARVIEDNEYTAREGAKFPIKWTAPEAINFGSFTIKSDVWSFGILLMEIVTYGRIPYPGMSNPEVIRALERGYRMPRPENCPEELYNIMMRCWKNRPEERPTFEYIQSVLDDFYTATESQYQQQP
Grb2 SH2, sequence (P62993 whole entry, looked up): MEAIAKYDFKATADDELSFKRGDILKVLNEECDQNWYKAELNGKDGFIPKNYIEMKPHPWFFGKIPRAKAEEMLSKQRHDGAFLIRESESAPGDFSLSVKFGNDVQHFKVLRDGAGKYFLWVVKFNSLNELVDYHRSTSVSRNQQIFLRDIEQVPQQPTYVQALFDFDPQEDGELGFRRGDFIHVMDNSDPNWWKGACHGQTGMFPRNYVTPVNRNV
EPHB2, sequence (P29323 whole entry, looked up): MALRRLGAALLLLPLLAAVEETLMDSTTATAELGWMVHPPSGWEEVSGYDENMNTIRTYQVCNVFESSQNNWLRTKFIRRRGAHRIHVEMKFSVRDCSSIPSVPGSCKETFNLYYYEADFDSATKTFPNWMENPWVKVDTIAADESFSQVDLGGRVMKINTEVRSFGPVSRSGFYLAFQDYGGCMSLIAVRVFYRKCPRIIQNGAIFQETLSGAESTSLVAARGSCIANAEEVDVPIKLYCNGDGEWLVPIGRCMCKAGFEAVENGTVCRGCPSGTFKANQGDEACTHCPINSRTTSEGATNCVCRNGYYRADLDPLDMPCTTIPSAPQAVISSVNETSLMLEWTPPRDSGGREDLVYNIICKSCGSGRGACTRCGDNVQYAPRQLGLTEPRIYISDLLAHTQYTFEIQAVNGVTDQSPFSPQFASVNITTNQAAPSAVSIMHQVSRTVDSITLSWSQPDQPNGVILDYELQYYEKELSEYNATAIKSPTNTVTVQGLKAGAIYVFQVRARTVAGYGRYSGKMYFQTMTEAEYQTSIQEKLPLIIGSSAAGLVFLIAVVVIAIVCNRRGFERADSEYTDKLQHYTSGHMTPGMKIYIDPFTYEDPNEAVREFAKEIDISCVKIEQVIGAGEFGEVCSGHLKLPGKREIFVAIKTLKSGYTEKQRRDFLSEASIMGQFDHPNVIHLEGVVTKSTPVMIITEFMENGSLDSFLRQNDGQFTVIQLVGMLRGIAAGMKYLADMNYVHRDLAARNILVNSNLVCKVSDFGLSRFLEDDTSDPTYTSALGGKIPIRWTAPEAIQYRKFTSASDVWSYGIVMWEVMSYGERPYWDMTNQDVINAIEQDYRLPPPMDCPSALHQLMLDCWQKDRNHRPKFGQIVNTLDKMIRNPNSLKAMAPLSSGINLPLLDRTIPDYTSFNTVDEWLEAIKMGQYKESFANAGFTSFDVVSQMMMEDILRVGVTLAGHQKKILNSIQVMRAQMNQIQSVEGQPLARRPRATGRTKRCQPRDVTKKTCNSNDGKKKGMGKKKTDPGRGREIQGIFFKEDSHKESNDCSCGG

Sequence	phosphorylation enrichment (AncSZ)	phosphorylation enrichment (EPHB1)	phosphorylation enrichment (EPHB2)	phosphorylation enrichment (FGFR1)	phosphorylation enrichment (FGFR3)	phosphorylation enrichment (Fer (mouse))	phosphorylation enrichment (Fes)	phosphorylation enrichment (Fyn)	phosphorylation enrichment (Hck)	phosphorylation enrichment (Jak2)	phosphorylation enrichment (MERTK)	phosphorylation enrichment (c-Abl (mouse))	phosphorylation enrichment (c-Src)	SH2 binding enrichment (Grb2 SH2)	SH2 binding enrichment (SHP2-C SH2)	SH2 binding enrichment (c-Src SH2)
LVKDPYVMFPQ [PLEKHG2_Y489_P484L]	1.45	0.91	0.608	7.45	3.42	1.12	1.93	4.32	2.48	1.79	0.997	0.943	3.86	0.778	0.459	1.98
TLDTDYQMTKR [ADA_Y308]	0.77	0.45	0.504	0.462	0.584	0.697	0.781	0.483	0.445	0.632	0.363	0.499	0.35	0.92	0.597	0.558
DYSLKYATDIP [APC_Y1183]	1.35	0.78	0.565	0.6	0.913	0.573	1.29	0.582	0.6	1.25	0.5	0.736	0.571	0.704	0.536	0.443
SVTCTYSAALN [TP53_Y126_P128A]	1.31	0.876	0.803	0.552	0.929	0.552	1.72	0.657	0.679	1.41	0.62	0.947	0.836	0.686	0.654	0.395
IWGKKYPTCNS [PTPRZ1_Y53_N48I]	0.697	0.441	0.491	0.432	0.607	0.518	0.776	0.369	0.406	0.667	0.407	0.628	0.397	1.2	0.89	0.846
PVDTYYDSTRG [DYNC2H1_Y2231_M2227V]	1.18	0.934	0.608	2.01	1.58	0.713	1.12	1.09	1.31	0.909	0.554	0.953	0.955	1.08	0.667	0.835
SDVNKYSTAFG [GJB3_Y16_G12D]	0.521	0.467	0.387	0.348	0.459	0.462	0.67	0.42	0.386	0.451	0.393	0.509	0.361	0.777	0.553	0.617
LSDGPYSNSYE [EPOR_Y485_P488S]	1.24	0.944	0.67	0.862	1.02	0.604	1.2	0.59	0.664	1.38	0.622	0.762	0.968	0.557	0.523	1.56
GRFSGYKSKHG [EPHA3_Y570_C568S]	0.39	0.34	0.256	0.312	0.392	0.278	0.438	0.407	0.361	0.438	0.397	0.65	0.364	0.857	0.631	0.92
EILTQYEAMAS [GFAP_Y242_R239L]	1.02	0.547	0.452	0.485	0.608	0.514	0.976	0.529	0.526	0.846	0.471	0.713	0.503	0.853	0.638	2.84
GDEEDYFEIPG [EGFR_opt_F_2015]	2.75	0.571	0.723	4.57	5.08	0.5	1.22	0.504	0.532	1.21	0.532	0.78	0.628	0.875	0.632	0.706
LASSEYPVRRR [GALK1_Y236]	0.62	0.542	0.472	0.45	0.496	0.363	0.612	0.543	0.514	0.475	0.526	0.448	0.572	0.512	0.426	0.336
AVHPGYGFLSE [PCCA_Y143]	0.663	0.46	0.672	0.662	1.12	0.545	0.99	0.487	0.666	0.82	0.527	0.692	0.47	0.706	0.523	0.466
NLNGKYNKPRA [ANGPTL3_Y417]	0.51	0.294	0.353	0.344	0.525	0.372	0.613	0.659	0.362	0.8	0.471	0.696	0.334	1.3	0.875	1.18
PRSRSYSSTSI [REPS2_Y462]	1.11	0.538	0.523	0.743	0.611	0.57	1.71	1.06	0.468	1.2	1	0.932	1.33	0.893	0.423	0.388
VRFVDYVLFRS [FAM189B_Y361_S358F]	1	2.13	0.919	2.27	1.65	0.458	1.1	0.542	0.499	1.01	0.461	0.764	0.477	2.04	1.77	1.44
GLRYGYGGLGG [KRTAP20-2_Y15_V17G]	0.507	0.349	0.31	0.339	0.412	0.334	0.564	0.349	0.329	0.44	0.349	0.431	0.398	0.826	0.557	0.568

Sequence	phosphorylation enrichment (AncSZ)	phosphorylation enrichment (EPHB1)	phosphorylation enrichment (EPHB2)	phosphorylation enrichment (FGFR1)	phosphorylation enrichment (FGFR3)	phosphorylation enrichment (Fer (mouse))	phosphorylation enrichment (Fes)	phosphorylation enrichment (Fyn)	phosphorylation enrichment (Hck)	phosphorylation enrichment (Jak2)	phosphorylation enrichment (MERTK)	phosphorylation enrichment (c-Abl (mouse))	phosphorylation enrichment (c-Src)	SH2 binding enrichment (Grb2 SH2)	SH2 binding enrichment (SHP2-C SH2)	SH2 binding enrichment (c-Src SH2)
KVIDMYLMGCF [GABRB2_Y308_A304V]	1.28	0.636	0.55	0.619	0.842	0.638	1.38	0.535	0.608	1.24	0.429	0.964	0.593	0.795	0.917	0.363
PLQKTYNHNVL [SLC4A1_Y553_Y555H]	0.657	0.576	0.591	0.479	0.524	0.659	0.946	0.531	0.291	0.892	0.744	0.833	0.686	0.908	0.607	0.659
DERQPYAHMNG [IGF1R_Y1346]	0.588	0.359	0.362	0.45	0.459	0.456	0.599	0.438	0.427	0.533	0.343	0.455	0.376	0.729	0.767	1.85
KLPYPYDDPFS [GPX2_Y127]	1.09	0.458	0.532	0.507	0.745	0.434	1.06	0.534	0.589	0.954	0.515	0.705	0.546	0.97	0.544	3.58
IDDNEYAFLKA [HNF4A_Y286_YF]	1.54	0.652	0.597	1.44	1.43	0.659	1.32	0.8	0.98	1.13	0.538	0.922	0.728	0.79	0.546	0.469
LLREWYMIISR [HUWE1_Y4066]	1.35	0.703	0.792	0.708	1.1	0.723	1.45	0.588	0.441	1.3	0.433	0.931	0.419	1.71	1.5	1.37
KLNNEYLELNY [MME_Y497]	1.08	0.925	1.01	4.67	3.27	0.417	0.892	0.633	0.627	0.861	0.449	0.635	0.679	0.931	0.783	0.553
PYRQWYESHYA [RPS8_Y113]	1.61	2.82	2.27	1.36	1.1	10.9	1.69	1.09	1.3	1.37	1.86	1.19	2.35	1.33	1.09	1.59
CTTIHKNFMCN [TP53_Y234_Y234K_YF]	0.831	0.394	0.53	0.486	0.585	0.453	0.699	0.409	0.405	0.553	0.42	0.49	0.448	1.1	0.795	0.653
AHLTEYLSTHF [UQCRC1_Y219_D215H_YF]	0.902	0.471	0.499	0.529	0.577	0.44	0.915	0.471	0.526	0.837	0.408	0.676	0.525	0.811	0.809	0.412
HTVEDYQAIVD [CCT7_Y263]	1.73	0.882	0.936	0.818	1.06	0.85	2.21	0.773	0.794	1.67	0.734	1.68	0.836	0.816	0.807	0.465
NVADHYRVFKP [ATP6V0D2_Y271_G272R_YF]	0.708	0.404	0.361	0.459	0.608	0.404	0.616	0.391	0.418	0.582	0.644	0.686	0.471	0.842	0.624	0.397
EADRKYEEVAC [TPM3_Y163_R168C]	1.17	0.622	0.609	0.598	0.777	0.61	1.41	0.574	0.681	1.04	0.545	0.862	0.53	1.12	0.925	21.8
KPMDTYYDSTR [DYNC2H1_Y2230]	0.874	0.632	0.675	0.998	0.76	0.447	0.774	0.543	1.13	0.545	0.498	0.678	0.7	0.903	0.66	0.898
FNVLQYVVPKV [EIF3A_Y382_E386K]	0.832	1.09	0.607	1.1	1.02	0.348	0.797	0.465	0.386	2.2	1.41	9.24	0.383	1.31	2.18	0.964
LGSNTYPFLLM [SAG_Y120_T125M]	1.12	0.835	0.783	1.91	1.86	0.646	1.73	0.384	0.492	1.31	0.36	1.05	0.713	0.808	0.435	0.427
